Laboratory results reported in patent US20030170222A1.

Target: Melanocortin MC5 (human recombinant, HEK-293 cells) (human), P33032
Sequence (P33032 whole entry): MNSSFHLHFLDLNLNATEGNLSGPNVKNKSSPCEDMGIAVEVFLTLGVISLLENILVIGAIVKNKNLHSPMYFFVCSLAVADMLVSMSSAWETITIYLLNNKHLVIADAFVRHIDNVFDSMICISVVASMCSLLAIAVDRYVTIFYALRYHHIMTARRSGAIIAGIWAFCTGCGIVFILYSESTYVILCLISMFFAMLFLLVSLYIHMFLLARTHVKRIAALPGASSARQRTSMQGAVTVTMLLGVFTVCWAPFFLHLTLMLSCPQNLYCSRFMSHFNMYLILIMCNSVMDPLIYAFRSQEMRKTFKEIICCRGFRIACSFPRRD

B1: β-Ge14.1-D1 (peptide)
peptide: SLWCVCPFRVCPPCH
modifications: not checked
B1 gave a % Inh. of 71%, an IC50 of 294 nM and a Ki of 276 nM.
